Test: yeast display, Sf9 membrane polyspecificity reagent, FACS + sequencing; frameworks hold sequencing errors
How it was run: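 A nanobody's polyreactivity label depends on the gate it was sorted from. Yeast display cells were stained with 10% biotinylated, detergent-solubilized Sf9 membrane reagent for 1 hour at 4 °C, enriched on streptavidin microbeads and sorted by FACS. The low and high (top ~1%) gates were set on anti-HA fluorescence for expression and streptavidin fluorescence for reagent binding.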

Sequence | polyreactivity (PSR sort gate)
QVQLVESGGGLVQAGGSLRLSCAASGFIIDCYAMGRYRQAPGKERELVAVISQRGSNTYYADSVKGRFTISRDHAKNTVYLQMNSLKPEDTAVYYCAARYKQGDSTGGRMNYWGQGTQVTVSS | high polyreactivity
QVQLVESGGGLVQAGGSLRLSCAASGRTFRTYTMGWYRQAPGKEREFVAAIDRTGGSTYYADSVKGRFTISRDNAKNTVYLQMNSLKPEDTAVYYCAARFGSGFNYWGQGTQVTVSS | high polyreactivity
QVHLVDSGGGLVQAGGSLGLNCAASGRTLRYNAMGWYRQATGIERELVAAINWNGGSTYYADSVKGRFTISRETAMYTVYLQMNRLKPEDTAVYFCNDDFYHRYDWGQGTQVTVSS | high polyreactivity
QVQLVESWGGLVQAGGSLRLSCAASGIIFVSNAMGWYRQATGKERELVATINWSDDSTYYADSVKGRFTISRDNAKNTVYLQMNSLKPEDTAVYYCAADDYAVDYSYYYNDEYDYWGQGTQVTVSS | low polyreactivity
QVQLVESGGGLVQAGGSLRLSCAASGSTLYTYAMGWYRQAPGKERELVATISWSGSSTYYADSVKGRFTISRDNAKNTVYLQMNSLKPEHTAVYYCAAPYHYWYRLDYWGQGTQVTVSS | high polyreactivity
QVQLVESGGGLVQAGGSLRLSCAASGLTFAFNVMGWYRQAPGKERELVAAISASGASTYYADSVKGRFTISRDTAKNTVYLQMNSLKPEDTAVYYCAALGYCFSYRYDYWGQGTQVTVSS | high polyreactivity
QVQLVESGGGLVQAGGSLRLSCAASGITFSYNAMGWSRQAPGKERELVAAISSNSDSTYYADSVKGRFTISRDNAKNTVYLQMNSLKPEDTAVYYCAADTPDAPDYSGFYYWGQGSQVTVSS | low polyreactivity
QVQLEESGGGLVQAGGSHRLSCAASGFIFDRNAMGWYRQAPGKERELVAAITRSGGNTYYADSVKGRFTISRDNAKNTVYLQMNSLKPEDTAVYYCAKDVIQWSVSASYRFGYWGQGTQVTVSS | high polyreactivity
QVQLGESGGGLVQAGGSVRLICAASGGIFEWNAMGWYRQAPGKERELDAAISNTGGSTSYADSVKGRFTISRDNAMNSVYLQMNCLKPEDTAVYYCNRFPPRRYYARYYSWGQGTQVTVSS | high polyreactivity
QVQLEESGGGLVQAGGSLRLSCAASGRTFSRNAMGWYRQAPGKERELVAAITKGGGSTYYADSVKGRFTISRDNAKNTVYLQMNSLKPEDTAVYYCAARKRPPYGYGYWGQGTQVTVSS | high polyreactivity
QVQLVESGGGLVQAGGSLRLSSAASGLIFFTYAMGWYRQAPGKERELVATISRGGRTKYADSVKGRFTISRDNAKNSVYLQMNSLKPEDTAVYYCAAYLSRSYYAYDYWGQGTQVTVSS | high polyreactivity
QVQLVESGGGLVQAGGSLRLSCAASGITFYRYAMGWYRQAPGKERELVASISSRGSSTYYADSVKGRFTISRDNAKNTVYLQMNSLKPEDTAVYYCAKSRGSRGFVASTYNYWGQGTQVTVSS | high polyreactivity
QVQLVESGGGLVQAGGSLRLSCAASGRIFLSYTMGWYRQAPGKERELVAAITSGGSTYYADSVKGRFTISRDNAKNTVYLQMNSLKPEDTAVYYCATDYGYSWYDYWGQGTQVTVSS | low polyreactivity
QVQLVESGGGLVQAGGSLRLSSPASGSTYVVYAMGWYRPAPGKERELVADITRSGGSTYYADSVKGRFTISRDNAKNTVYLQMNSLKPEDSAVYYCAAVRRNGPYKYYYWGQGTQVTVSS | high polyreactivity
QVQLVESGGGLVQAGGSLRLSCAASGSIIGDNAMGWSRQAPGKERELVADITNGGSTNYADSVKGRFTISRDNAKNTVYLQMNSLKPEDTAVYYCNKDIVWYGNYGYWGQGTQVTVSS | low polyreactivity
QVQLVESGGGLVQAGGSLRLSCAASGFTFRYYAMGWYRQAPGKERELVAAISYRGGRTYYADSVKGRFTISRDNAKNTVYLQMNSLKPEDTAVYYCAVDYTLADVIYDYWGQGTQVTVSS | high polyreactivity
QVQLVESGGGLVQAGGSLRLTCAASGRTFWRYGMGWYRPAPVKETELVAAITDSVDSTNYADSVKGRFTISRDNAKNTVYLQMNSLKPEDTAVYYCAASDVVFALNGYYPGEDDYWGQGTQVTVSS | low polyreactivity
QVQLVESGGGLVQAGGSLRLTCDASGRTFYWNAMGWYRQAPGKERELVAAISNCGTTTYYADSVKGRFTISRDNAKNTVYLQLNSLKPEDTAVYYCAADIWYFDYEYWGQGTQVTLSS | high polyreactivity
QVQLVESGGGLVQAGGSLRISCAASGIIFPYAMGWYRQAPGKERELVARITVGSTSYADSVKGRFTISRDNAKNTVYVQMNSLKPEDTAVYYCNKDSGEDDRWPYDYWGQGTQVTVSS | low polyreactivity
QVQLQESGGGLVQAGGSLSLSCAASGSNFVSVTMGWYRQAHGKERELVASIGRGSTTNHADSVKGRFTISRDNAKNIVYLLMNSLKPEDTAVYYCAALESYGKYHGYWGQGTQVTVSS | low polyreactivity
QVQLVESGGGLVQAGGSLRLSCAASGISFTYNTMGWSRQAPGKESELVAAITSGGGTNYADSVKGRFTISRDNAKNTVYLQMNSLKPEDTAVYYCAKDPGTVGPIWYDYWGQGTQVTVSS | low polyreactivity

Sequence | polyreactivity (PSR sort gate)
QVQLVESGGGLVQAGVSLRLSCAASGRTFTHYPMGWYRQAPGKERELVAAISRSGGTTYYADSVKGRFTISRDNAKSTVYLQMNSLKPEDTAVYYCNAEVVDSELGVFVDYYWAYDYWGQGTQVTVSS | high polyreactivity
QVQLVESGGGLVQAGGSLRLSCAASGLILRRYAMGWYRQAPGKDRELVAAISWSGGRTYYADSVKGRFTISRDNAKNTVYLQMISLKPEDTAVYYCAAGYIYWYYSYDYWGQGTQGTVSS | high polyreactivity
QVQLVESGGGLVQAGGSLRLSCAASGYTLGPYAMGWYRQAPGKERELVATISSAGNTNYADSVKGRFTISRDNAKNTVYLQMNSLKPEDTAVYYCAAAIWYGFGGASGGTYYYWGQGTQVTVSS | high polyreactivity
QVQLVESGGGLVQAGGSLRLSCAASGSIFRYYDMGWYRQAPGKERELVAAISTSGVRTNYADSVKGRFTISRDNAKNTVYLQMNSLKPEDTAVYYCAARSQIYYRYRSYGYWGQGTQVTVSS | high polyreactivity
QVQLVESGGGLVQAGGSLRLSCAASGSIFFFNAMGWYRQAPGKEREMVAAISESGTSTYYADSVKGRFTISRDNAKNTVYLQMNSLKPEDTAVYYCNVVFRYAYGVYYTPEFYYWGQGTQVTVSS | low polyreactivity
QVQLVESGGGLVQAGGSLRISCAASGFIFYYAMGWYRQAPGKERELVAAISSGSSTYADSVKGRFTISRDNAKNTVYLQMNSMKPEDTAVYYCAAKTQNAYYWGQGTQVTVSS | low polyreactivity
QVQLVESGGGLVQAGGSLRLSCAASVSTFSTYAMGWYRQAPGKERELVAASTWRGSSTYYADSVKGRFTISRDNAKKTVYLQMNSLKPEDTAVYYCAAEDTFYEYYYWGQGTQVTVSS | high polyreactivity
QVQLVESGGGLVQAGGSLRLSCAASGRIFSRYTMGWYRQAPGKERELVATIRISGGNTYYADSVKGRFTISRDNAKNTVYLQMNSLKPDDTAVYYCAARYGWVQNTYTMYFWGQGTQVTVSS | high polyreactivity
QGQLVESGGGLVQAGGSLRLSCAASGNTFGKNAMGWYRQAPGKERELVAAIRSSGGSTYYADSVKGRFTISRDNAKNTVYLQMNSLKPEDSAVYYCNADVIRQTDGYDYWGQGTLVTVSS | high polyreactivity
QVQLVESGGGLVQAGGSLRLSCAASGFTFAGNAMGWDRPAPGKERELVAGISRRGGNTYYADSVKGRFTISRDTAKNTVYLQMNRLKPEDTAVYYCARYSSSYWGQGTQVTVSS | high polyreactivity
QVQLVESGRGLVQAGGSLRLSCAASGSTFFDYAMGWYRQAPGKERELVATISWNGGSTYYADSVKGRFTISRDTATNTVYLQMNSLKPEDTAVYYCAKDRGYRYLGDYWGQGTQVSVSS | low polyreactivity
QVQLVESGGGLVQAGGSLRLSCAASGRTFYFNGMGWYRQAPGKERELVAAIRWRDSNTYYADSVKGRFTISRDNAKNTVYLQMNSLKPEDTAVYYCNVGIYSYGINGRYDYWGQGTQVTVSS | high polyreactivity
QVQLVESGGGLVQAGGSLRLSCAATGSTFYHYAMGWYRQAPGKEREFVAAISTSGGRTYYADSVKGRFTISRDNAKNTVYLQMNSLKPEDTAVYYCAARPGSWYPSVPSYNYWGQGTQVTVSS | low polyreactivity
QVQLLESGGGLVQAGGSLRLSCAASGSIFTVYAMGWYRQAPGKERELVAAITGSGGRTYYADSVKGRFTISRDNAKNTVYLQRNSLKPEDTAVYYCAATTRPGYRYEGDYWGQGTQVTVSS | low polyreactivity
QVQLVESGGGLVQAGGSLRLSCAASGSTFPFYVMGWYRQAPGKERELVASIRGTGGNTYYADSVKGRFTISRDNAKNTVYLQMNSLKPEDTAVYYCNAVYRLSHYDLDYWGQGTQVTVSS | high polyreactivity
QVQLVESAGGLVQAGGSLRLSCAASGSIFSTYVMGWYRQAPGKERELVAAISRRGGSTYYADSVKGRFTISRDNAKNTVYLQMNSLKPEDTAVSYCAADGTVGRRDYWGQGTQVTVSS | high polyreactivity
QVQLEESGGGLVQAGGSLRLSCAASGFIFVRNAMGWYRQAPGKERELVAAITRSGGSTSYADSVKGRFTISRDNAKNTVYLQMNSLKPEDTAVYYCAPQYGYWGQGTQVTVSS | high polyreactivity
QVQLVESGGGLVQAGGSLRLSCAASGFTFRYYAMGWSRQDPGKERELVAAITNVGSTNYADSVKGRFTISRDNAKYTVYLLMNSLKPEDTAVYYCNAPRTPWRRSYDYWGQGTQVTVSW | high polyreactivity
QVQLVESGGSLVQAGGSLRLSCASSGYIFRLYAMGWYRHAPGKEREYVATITASGGTYYADSVKGRFTISRDNAKNTVYLQMNSLKPEDTAVYYCAAAKLRRLSRVRYVYWGQGTQVTVSS | high polyreactivity
QVQLVESGGGLVQAGGSLRLSCAASGIIFYDYAMGWYRQAPGKERELVAAISRSGGSTYYADSVKGRFTISRDNATNTVYLQMNSLKPEDTAVYYCNADEVVWGYNYWGQGTQVTVSS | low polyreactivity

From the nanobody polyreactivity screen of Harvey et al. (2022)
